Data: PMC12753827 (Nature Communications, 2025)

Target: the molecule itself
Assay: SEC

B1: CeLGRwt (full-length C. elegans LGR) (receptor)
chain: QNALSLAQTKHSCMALKAEDGEGCTCKQTKRYGQPECCCMGLIVSQLPTNLTADVGYLYLHNTSISVITPNFFDKFPSIRELEIDNSAHLEHIDGSSLSVLSKLRKLSVVKCPNLREISGKLLVNNTRIQNVILKNNGLATMPSLRMTDAHHVLLDRIDLSGNKIKFISDSKVRNVKARTVVLSENKLIEISGYAFTESQFLKLKLNNNPDLRSLSVDAFKNMAGLQTLDLSHTSIDTLPINGLKKLKTLILNDVPTLKSLPSVLSFTDLETAHFTYPHHCCLFKYVDDVTMNDNGKYQRNAKEIHKRICDKREQQKVARRRKRETSGIDFLDMLLKEWTDNSTYTGPDDADDDELPPFVEIGAEPCQSIGEEVQKYYSNITCYPQPDALNPCENIVGYPFLRIAVWVVCLAAIVGNIIVWALLGIVYEKRMRMHYLYMINMSVADMVTGIYLAVLAIADAKMSDEYYRHAVWWQTGWGCRAAGFLAVFASELGIISMFLIAFEMSYNTRQSFRGRRLSPKVGVLLMIGGWLFAIIMAILPWFDVSSYSESSVCLPLRAATIFDKSYLIFGLSFNFLAFAAMALSYGFIVKMLKENETREEDRALITKMTVLVVTDLICWFPTLFFGFTATIGFPLLSLSSAKFVLVFFFPINAFANPFLYVFFTEVIQHRVRSKTLPVIRRITTGPLNAASSLSNFYHSQPPGAHRRSRDEPTSPSGMHLAVTQTTSLNSTPRGSDVSRASDGMLFDYDRRASASPRVSFDIPISPTTPRSDRKNRISLLKRIVSSIPEVSDLSEHSSESHHEHVPHPRRKLRSSLNRILALGRRQEGSADSGRGSIASSAGSRDQNERVSLTSNASSILSPLLSPTNSNILILPPEPSKNRRKSTPAIPLLVVSDCS
**Q.** Which “stoichiometry N” value does the source give for B1 here?
**A.** The value was 2.
